Results reported in article PMC12377726 (Proceedings of the National Academy of Sciences of the …, 2025).

Target: eOD-GT8 (engineered outer domain germline-targeting version 8), monomer (HIV-1 gp120 engineered outer domain, …)

B1: G001_gp1_V06_VRC01c_88 (antibody, V domains shown)
VH: QVQLVQSGAEVKKPGASVKVSCKASGYTFTGYYMHWVRQAPGQGLEWMGWINPNSGGTNYAQKFQGRVTMTRDTSISTAYMELRGLRSDDTAVYYCASLYYYVPGGWGQGTLVTVSS
VL: EIVLTQSPGTLSLSPGERATLSCRASQSVSNSYLAWYQQKPGQAPRLLIYGASSRATGIPDRFSGSGSGTDFTLTISRLEPEDFAVYYCQQYVTFGPGTKVDIK
B1: binds.

B2: G001_gp1_V07_VRC01c_109 (antibody, V domains shown)
VH: QVQLVQSGAEVKKPGASVKVSCKTSGYTFTDYYIHWVRQAPGQGLEWMGWINPNSGGTNYAQKFQGGVTMTRDTSISTAYMDLNRLTSDDTAVYYCTRLPPNRAAPGWWFDPWGQGTLVTVSS
VL: EIVLTQSPGTLSLSPGERATLSCRASQSVSSSYLAWYQQKPGQAPRLLIYGASNRATGIPDRFSGSGSGTDFTLTISRLEPEDFAVYYCQQYGAFGQGTKVEIK
B2: binds.

B3: G001_gp1_V07_VRC01c_110 (antibody, V domains shown)
VH: QVQLVQSGAEVKKPGASVRVSCKASGYTFTDYYMHWVRQAPGQGLEWMGWINPNSGGTNYAQKFQGRVTMTRDTSISTAYMELSGLRSDDTAVYYCARITGYYDSSGYYCLDHWGQGTLVTVAS
VL: EIVLTQSPGTLSLSPGERATLSCRASQSGRSSYLAWYQQKPGQAPRLLIYGASSRATGIPDRFSGSGSGTDFTLTISRLEPEDFAVYYCHQYAAFGQGTKVEIK
B3: binds.

B4: G001_gp1_V06_VRC01c_83 (antibody, V domains shown)
VH: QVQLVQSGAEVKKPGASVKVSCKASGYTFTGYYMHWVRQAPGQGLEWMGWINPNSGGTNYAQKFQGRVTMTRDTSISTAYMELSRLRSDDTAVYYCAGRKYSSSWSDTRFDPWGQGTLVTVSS
VL: DIQMTQSPSSLSASVGDRVTITCQASQDINNYLNWYQQKPGKAPKLLIYDASNLETGVPSRFSGSGSGTDFTFTISSLQPEDIATYYCQQYEAFGQGTKVEIK
B4: binds.

B5: G001_gp1_V07_VRC01c_107 (antibody, V domains shown)
VH: QVQLVQSGAEVKKPGASVKVSCKASGYTFTGYYMHWVRQAPGQGLEWMGWINPSSGGTNYAQKFQGRVTMTRDTSISTAYMELDWLRSDDTAVYYCARVRGATTFDYWGQGTLVTVSS
VL: DIQMTQSPSSLSASVGDRVTITCQASQDISNYLHWYQQKPGKAPKLLIYDASKLETGVPSRFSGSGSGTDFTFTISSLQPEDIATYYCQQYNTFGQGTKLQIK
B5: binds.

B6: G001_gp1_V07_VRC01c_101 (antibody, V domains shown)
VH: QVQLVQSGAEVKKPGASVKVSCKASRDTFTGYYMHWVRQAPGQGLEWMGWINPNSGGTNYAQKFQDGVTLTRDTSISTAYMELSRLRSDDTAVYYCARTEYYSQRGWAFDIWGQGTMVTVSS
VL: DIQMTQSPSSLSASVGDRVTITCQASQDISNHLNWYQQKPGKAPKLLIYDASNLETGVPLRFSGSGSGTDFTFTISSLQPEDIATYYCQQYDNFGPGTKVDIK
B6: binds.

B7: G001_gp1_V07_VRC01c_102 (antibody, V domains shown)
VH: QVQLVQSGAEVKKPGASVKVSCKASGYTFTGYYMHWVRQAPGQGLEWMGWINPISGGTNYAQEFQDWVTMTRDTSISTAYMELSRLRSDDTAVYYCARHDSSENAFDIWGQGTMVTVSS
VL: DIQMTQSPSTLSASVGDRVTITCRASQSTSRWLAWYQQKPGKAPKLLIYKASSLESGVPSRFSGSGSGTEFTLTISSLQPDDFATYYCQQYTSFGQGTKLEIK
B7: binds.

B8: G001_gp1_V06_VRC01c_87 (antibody, V domains shown)
VH: not shown
VL: EIVMTQSPATLSVSPGERATLSCRASQSVSSNLAWYQQKPGQAPRLLIYGASTRATGIPARFSGSGSGTEFTLTISSLQSEDFAVYYCQQYETFGQGTKVEIK
B8: binds.

B9: G001_gp1_V07_VRC01c_105 (antibody, V domains shown)
VH: not shown
VL: EIVMTQSPATLSVSPGERATLSCRASQSVSSNLAWYQQKPGQAPRLLIYGASTRATGIPARFSGSGSGTEFTLTISSLQSEDFAVYYCQQYNIFGQGTKLEIK
B9: binds.

B10: G001_gp1_V06_VRC01c_86 (antibody, V domains shown)
VH: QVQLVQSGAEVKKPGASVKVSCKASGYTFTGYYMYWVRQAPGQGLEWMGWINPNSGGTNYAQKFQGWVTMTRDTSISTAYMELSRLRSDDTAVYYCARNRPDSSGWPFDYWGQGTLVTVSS
VL: QSALTQPPSASGSPGQSVTISCTGTSSDVGGYNYVSWYQQHPGKAPKLMIYEVSKRPSGVPDRFSGSKSGNTASLTVSGLQPEDEADYYCSSYEVFGTGTRVTVL
B10: binds.
